What was measured:
bEnd.3 ECM [1] = assay: ELISA-based screen of comparative VLR binding to bEnd.3 and 3T3 ECM; design: species or system mouse; details: VLR reduced off yeast surface; anti-c-myc detection
Text: Brain ECM-binding VLRs were identified by mining a yeast surface display library of VLRs. The library was generated from the VLR repertoire of lamprey immunized with mechanically isolated murine brain microvessel plasma membrane preparations that contained associated brain ECM (20). The library was first enriched for ECM binders via two rounds of biopanning on decellularized ECM generated by cultured mouse brain endothelial cells (bEnd.3 cell line). Next, we sought to identify ECM-binding clones that preferentially bound bEnd.3 ECM compared to control mouse fibroblast ECM (3T3 cell line). For this analysis, we picked individual yeast clones into 96-well plates and then expanded and induced them for VLR display. To enable moderate throughput analysis of the clones and avoid cumbersome subcloning of many VLR clones, we removed the VLRs directly from yeast surface via reduction. After removal, we evaluated the comparative binding of VLRs to bEnd.3 and 3T3 ECM via ELISA screening (FIG. 1A). […]
The VLR YSD library underwent two rounds of biopanning against bEnd.3 ECM to enrich for brain ECM-binding clones as previously described (20, 42). […] VLR binding was detected by incubation with one-step 3,3′,5,5′-tetramethylbenzidine (TMB) substrate for 15 to 30 min to develop signal. The reaction was stopped via acidification with 1 M HCl and quantified using absorbance signal at 450 nm. […]

bEnd.3 ECM [2] = assay: Affinity measurement of purified VLR on bEnd.3 ECM (ELISA, one-site equilibrium binding model); design: species or system mouse; details: three replicates, monomeric equilibrium binding model; read-out: Monomeric dissociation constant (Kd) for binding to bEnd.3 ECM
Method: To characterize VLR affinity for bEnd.3 ECM, dilutions of purified VLR were incubated with ECM. P1C10 VLR was diluted using a sixfold dilution scheme from 10 μM to 0.21 nM and then incubated with bEnd.3 ECM. Wells were washed five times with PBS+0.05% Tween 20 and then inubcated with anti-myc 9E10, 1:750, (BioLegend) and goat anti-mouse IgG modified with HRP. Wells were washed seven times with PBS+0.05% Tween 20 and then incubated with TMB substrate. Reaction was stopped after 15 min by acidification with 1 M HCl. Absorbance at 450 nm was quantified, and data were fit to a one-site equilibrium binding model to determine Kd as previously described (43). The amino acid sequence for VLR P1C10 is […]

bEnd.3 ECM [3] = assay: Biopanning of individual VLR-displaying yeast clones onto bEnd.3 and 3T3 ECM, bright-field microscopy; assay type: binding, mouse; details: yeast-displayed VLR, qualitative
Method: FIGS. 1A-1D. Identification of VLRs that bind brain ECM. (A) A yeast surface display VLR library underwent two rounds of biopanning to enrich for clones that bind bEnd.3 ECM. Next, individual clones were grown, induced and screened for comparative binding to bEnd.3 and 3T3 ECM. VLRs were released from the yeast surface using reducing agent and VLR binding to ECM was measured by probing the anti-c-myc epitope tag in an ELISA format. (B) Fold-changes in ECM binding. The ratio of bEnd.3 ECM/3T3 ECM ELISA signals is shown for 285 VLR clones. Lead clones P3A8 and P1C10 are noted. (C) Preferential binding to bEnd.3 ECM was evaluated for selected clones by biopanning individual clones onto bEnd.3 and 3T3 ECM. Yeast binding was qualitatively analyzed by bright field microscopy. Scale bars=100 μm. (D) VLRs were reduced off the yeast surface and used in labeling murine brain sections and detected via an anti-c-myc epitope tag antibody (green). Microvessels (magenta) were labeled with […] lectin, and cell nuclei (blue) were visualized with Hoechst 33342 stain. Scale bars=20 μm.
Brain ECM-binding VLRs were identified by mining a yeast surface display library of VLRs. […] After removal, we evaluated the comparative binding of VLRs to bEnd.3 and 3T3 ECM via ELISA screening (FIG. 1A). […]

U87 cells = assay: In vitro U87 cytotoxicity assay on bEnd.3 ECM (CellTiter-Glo); assay type: cell-based, human; details: VLR-conjugated doxorubicin-loaded liposomes bound to bEnd.3 ECM, 2 h incubation, unbound washed, 72 hours culture; read-out: EC50, U87 cell viability as a function of doxorubicin concentration
Text: EC50 calculations were made using GraphPad software suite. […] Data are presented as mean pixel intensity±SD.

B1: P1C10: Lamprey variable lymphocyte receptor clone binding brain ECM, SEQ ID NO:1 (protein)
chain: ACPSQCSCDQTTVKCHSRRLTSVPAGIPTTTKILRLYSNQITKLEPGVFDHLVNLEKLYISWNQLSALPVGVFDKLTKLTHLSLGYNQLKSVPRGAFDNLKSLTHIWLLNNPWDCECSDILYLKNWIVQHASIVNLQGHGGVDNVKCSGTNTPVRAVTEASTSPSKCP
modifications: Synthetic- VLR clone P1C10
In the case of B1, the “ELISA fold change (ratio of bEnd.3 ECM/3T3 ECM ELISA signals)” value (bEnd.3 ECM [1]) is reported as 4.2 fold, the Kd (bEnd.3 ECM [2]) is reported as 48.4 ± 6.05 nM and the “Yeast clone binding to bEnd.3 ECM compared to 3T3 ECM” value (bEnd.3 ECM [3]) is reported as “bound selectively to bEnd.3 ECM compared to 3T3 ECM”. It also gave an EC50 (U87 cells) of 199 ± 1.7 nM.

Source: patent publication US12077609B2, “Variable lymphocyte receptors that target the brain extracellular matrix and methods of use” (Wisconsin Alumni Research Foundation, priority 2018, dated 2024)
